These results are taken from patent publication US12427210B2, “Compounds comprising a fibroblast activation protein ligand and use thereof” (priority 2019, dated 2025).

Bridge positions count the residues as written; N and C are the ends. * marks the point of attachment. Hexanoyl = CCCCCC(=O)*

Experiment [1] concerns the target Recombinant human FAP (R&D systems, #3715-SE) (human).
Experiment [2] addresses human fibroblast activation protein (FAP) on human WI-38 fibroblasts (human). Kind of experiment: competitive FACS binding on FAP-expressing WI-38 cells against 3 nM Cy5-labeled compound; category A = pIC50 values >8.0. Particulars: remark: other sources report otherwise. A general note: In flow cytometry, cells or beads pass a laser one at a time.
The target of another experiment is KV channel. Kind of experiment: radioligand displacement, reference compound of the assay (Ki Ref). (In a radioligand displacement assay an active substance lowers the binding of a labelled ligand.)
For experiment [3], the target named is T1, Cathepsin F (Homo sapiens (Human)) (UniProt Q9UBX1).
T1 sequence: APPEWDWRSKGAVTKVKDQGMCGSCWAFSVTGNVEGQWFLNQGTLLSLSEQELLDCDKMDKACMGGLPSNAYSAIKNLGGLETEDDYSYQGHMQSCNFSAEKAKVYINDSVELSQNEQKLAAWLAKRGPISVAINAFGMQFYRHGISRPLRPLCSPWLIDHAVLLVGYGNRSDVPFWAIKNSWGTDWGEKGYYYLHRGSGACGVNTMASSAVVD

Sequence of Recombinant human FAP (R&D systems, #3715-SE) (human) (chain, as listed by the source limits assumed): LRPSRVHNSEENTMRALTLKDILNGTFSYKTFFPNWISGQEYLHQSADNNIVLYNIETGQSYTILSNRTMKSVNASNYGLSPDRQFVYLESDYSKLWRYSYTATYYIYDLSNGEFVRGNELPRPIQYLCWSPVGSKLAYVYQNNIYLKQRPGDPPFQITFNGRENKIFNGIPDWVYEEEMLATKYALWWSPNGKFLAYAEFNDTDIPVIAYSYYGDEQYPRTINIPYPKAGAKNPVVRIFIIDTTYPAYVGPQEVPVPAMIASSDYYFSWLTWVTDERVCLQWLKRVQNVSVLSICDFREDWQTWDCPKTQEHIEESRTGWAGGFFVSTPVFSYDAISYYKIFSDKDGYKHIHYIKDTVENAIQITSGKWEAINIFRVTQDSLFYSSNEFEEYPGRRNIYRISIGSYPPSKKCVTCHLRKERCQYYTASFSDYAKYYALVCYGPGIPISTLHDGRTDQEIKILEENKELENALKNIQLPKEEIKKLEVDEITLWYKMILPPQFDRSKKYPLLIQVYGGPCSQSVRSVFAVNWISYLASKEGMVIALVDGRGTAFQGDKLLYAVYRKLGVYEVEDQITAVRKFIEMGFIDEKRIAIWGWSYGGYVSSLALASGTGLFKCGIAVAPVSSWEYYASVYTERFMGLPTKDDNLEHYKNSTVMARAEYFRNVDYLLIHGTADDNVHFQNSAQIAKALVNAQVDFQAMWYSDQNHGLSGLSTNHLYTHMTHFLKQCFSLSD

B1: Hex-[Cys(tMeBn(EuDOTA-PP))-Pro-Pro-Thr-Gln-Phe-Cys]-Asp-NH2 (3BP-3661) (peptide)
peptide: CPPTQFCD
modifications: N-terminal hexanoyl (Hex); Cys1 and Cys7 cyclised through tMeBn carrying EuDOTA-PP (europium complex); C-terminal amide
On to B1, for which the pIC50 Category (Activity) in experiment [1] was more than 8 pIC50.

B2: Hex-[Cys(tMeBn(LuDOTA-AET))-Pro-Pro-Thr-Gln-Phe-Cys]-OH (3BP-3624) (peptide)
peptide: CPPTQFC
modifications: here or on the partner: N-terminal hexanoyl (Hex); Cys1 and Cys7 cyclised through tMeBn carrying LuDOTA-AET (lutetium complex); free C-terminal acid (-OH)
B2 registered a pIC50 Category (FACS) in experiment [2] of more than 8 pIC50.

B3: Hex-[Cys(tMeBn(GaDOTA-AET))-Pro-Pro-Thr-Gln-Phe-Cys]-OH (3BP-3949) (peptide)
peptide: CPPTQFC
modifications: here or on the partner: N-terminal hexanoyl (Hex); Cys1 and Cys7 cyclised through tMeBn carrying GaDOTA-AET (gallium complex); free C-terminal acid (-OH)
In the case of B3, the pIC50 Category (FACS) in experiment [2] is more than 8 pIC50.

B4: alpha -dendrotoxin (protein)
chain: QPRRKLCILHRNPGRCYDKIPAFYYNQKKKQCERFDWSGCGGNSNRFKTIEECRRTCIG
Turning to B4, the Ki (in general, a dissociation constant, usually derived from enzyme kinetics or from competition with a known ligand) with KV channel amounted to 97 pM. That is a picomolar value.

B5: Hex-[Cys(tMeBn(InDOTA-PP))-Pro-Pro-Thr-Gln-Phe-Cys]-Asp-NH2 (3BP-3590) (peptide)
peptide: CPPTQFCD
modifications: N-terminal hexanoyl (Hex); Cys1 and Cys7 cyclised through tMeBn carrying InDOTA-PP (indium complex); C-terminal amide
As for B5, the pIC50 Category (Activity) in experiment [1] was more than 8 pIC50.

B6: Cystatin C (protein)
chain: SSPGKPPRLVGGPMDASVEEEGVRRALDFAVGEYNKASNDMYHSRALQVVRARKQIVAGVNYFLDVELGRTTCTKTQPNLDNCPFHDQPHLKRKAFCSFQIYAVPWQGTMTLSKSTCQDA
B6 showed a Percentage inhibition (%), Reference (% inhibition at 1 µM) in experiment [3] of 74.

B7: Hex-[Cys-(tMeBn(CuDOTA-AET))-Pro-Pro-Thr-Gln-Phe-Cys]-OH (3BP-4293) (peptide)
peptide: CPPTQFC
modifications: here or on the partner: N-terminal hexanoyl (Hex); Cys1 and Cys7 cyclised through tMeBn carrying CuDOTA-AET (copper(II) complex); free C-terminal acid (-OH)
Molecule B7 gave a pIC50 Category (FACS) in experiment [2] of more than 8 pIC50.

B8: Hex-[Cys(tMeBn(InDOTA-AET))-Pro-Pro-Thr-Gln-Phe-Cys]-OH (3BP-3623) (peptide)
peptide: CPPTQFC
modifications: here or on the partner: N-terminal hexanoyl (Hex); Cys1 and Cys7 cyclised through tMeBn carrying InDOTA-AET (indium complex); free C-terminal acid (-OH)
Regarding B8, the pIC50 Category (FACS) in experiment [2] is more than 8 pIC50.

B9: Hex-[Cys-(tMeBn(ZnDOTA-AET))-Pro-Pro-Thr-Gln-Phe-Cys]-OH (3BP-4343) (peptide)
peptide: Hexanoyl-CPPTQFC-OH
modifications: bridge 1-7; not fully specified (bridges); printed as Hex-[Cys-(tMeBn(ZnDOTA-AET))-Pro-Pro-Thr-Gln-Phe-Cys]-OH; also: zinc complex (ZnDOTA) of 3BP-3554
As for B9, the pIC50 Category (FACS) in experiment [2] was more than 8 pIC50.

B10: Hex-[Cys(tMeBn(GaDOTA-PP))-Pro-Pro-Thr-Gln-Phe-Cys]-Asp-NH2 (3BP-3592) (peptide)
peptide: CPPTQFCD
modifications: N-terminal hexanoyl (Hex); Cys1 and Cys7 cyclised through tMeBn carrying GaDOTA-PP (gallium complex); C-terminal amide
For B10, the pIC50 Category (Activity) in experiment [1] was more than 8 pIC50.

B11: Hex-[Cys(tMeBn(EuDOTA-AET))-Pro-Pro-Thr-Gln-Phe-Cys]-OH (3BP-3662) (peptide)
peptide: CPPTQFC
modifications: here or on the partner: N-terminal hexanoyl (Hex); Cys1 and Cys7 cyclised through tMeBn carrying EuDOTA-AET (europium complex); free C-terminal acid (-OH)
Consider B11, for which the pIC50 Category (FACS) in experiment [2] was more than 8 pIC50.

B12: Hex-[Cys(tMeBn(LuDOTA-PP))-Pro-Pro-Thr-Gln-Phe-Cys]-Asp-NH2 (3BP-3591) (peptide)
peptide: CPPTQFCD
modifications: N-terminal hexanoyl (Hex); Cys1 and Cys7 cyclised through tMeBn carrying LuDOTA-PP (lutetium complex); C-terminal amide
Take B12: the pIC50 Category (Activity) in experiment [1] was more than 8 pIC50.
